Measured values from PMC3130887 (Nature structural & molecular biology, 2011).
Values belong to the molecule of their own block, whether it stands above or below them.

Legend:
[1] = target: ADD_(ATRX) Y203A mutant (purified, for ITC) (human) (UniProt P46100); assay: ITC
[2] = target: ADD_(ATRX) (ATRX fragment 167–289) (human) (UniProt P46100); assay: ITC
ADDATRX = target: T1, ADDATRX (Homo sapiens, UniProt P46100, F284Y/K251R); assay type: binding; conditions: wild type ADDATRX; Kd n.d. in Fig. 4b
T1 sequence (P46100 167-289 K251R/F284Y): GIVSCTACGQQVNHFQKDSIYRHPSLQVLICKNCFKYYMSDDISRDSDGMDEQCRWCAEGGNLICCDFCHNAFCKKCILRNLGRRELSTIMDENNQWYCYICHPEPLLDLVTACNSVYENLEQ

[3] = target: unmodified H3 tail (as used in the SPR assay); assay: SPR

Molecule: H3_(1–15)K9me3 peptide (from UniProt P68431 2-16)
Kd [1]: 4.6 µM
dH [1]: -4.7 kcal/mol

B1: ADD_(ATRX) (as used in the SPR assay) (domain or fragment)
chain: KRGEDGLHGIVSCTACGQQVNHFQKDSIYRHPSLQVLICKNCFKYYMSDDISRDSDGMDEQCRWCAEGGNLICCDFCHNAFCKKCILRNLGRKELSTIMDENNQWYCYICHPEPLLDLVTACNSVFENLEQLLQQNKK
Kd [3]: 3.2 µM

The next lines start with the values.

Kd [2]: 4.9 µM
dH [2]: -12 kcal/mol
Molecule: H3 peptide trimethylated at both Lys4 and Lys9

binding in ITC titration (ADDATRX): totally lost
Molecule: H3_5–13K9me3: synthetic H3 peptide, residues 5–13, Lys9 trimethylated (QTARKSTGG; trimethyl-lysine at 9)
